IntAct's records for PubMed 29039417

B1: Protein PTHB1 (Homo sapiens), Q3SYG4 (parent)
chain: MSLFKARDWWSTILGDKEEFDQGCLCLANVDNSGNGQDKIIVGSFMGYLRIFSPHPAKTGDGAQAEDLLLEVDLRDPVLQVEVGKFVSGTEMLHLAVLHSRKLCVYSVSGTLGNVEHGNQCQMKLMYEHNLQRTACNMTYGSFGGVKGRDLICIQSMDGMLMVFEQESYAFGRFLPGFLLPGPLAYSSRTDSFLTVSSCQQVESYKYQVLAFATDADKRQETEQQKLGSGKRLVVDWTLNIGEQALDICIVSFNQSASSVFVLGERNFFCLKDNGQIRFMKKLDWSPSCFLPYCSVSEGTINTLIGNHNNMLHIYQDVTLKWATQLPHIPVAVRVGCLHDLKGVIVTLSDDGHLQCSYLGTDPSLFQAPNVQSRELNYDELDVEMKELQKIIKDVNKSQGVWPMTEREDDLNVSVVVSPNFDSVSQATDVEVGTDLVPSVTVKVTLQNRVILQKAKLSVYVQPPLELTCDQFTFEFMTPDLTRTVSFSVYLKRSYTPSELEGNAVVSYSRPTDRNPDGIPRVIQCKFRLPLKLICLPGQPSKTASHKITIDTNKSPVSLLSLFPGFASQSDDDQVNVMGFHFLGGARITVLASKTSQRYRIQSEQFEDLWLITNELILRLQEYFEKQGVKDFACSFSGSIPLQEYFELIDHHFELRINGEKLEELLSERAVQFRAIQRRLLARFKDKTPAPLQHLDTLLDGTYKQVIALADAVEENQGNLFQSFTRLKSATHLVILLIALWQKLSADQVAILEAAFLPLQEDTQELGWEETVDAAISHLLKTCLSKSSKEQALNLNSQLNIPKDTSQLKKHITLLCDRLSKGGRLCLSTDAAAPQTMVMPGGCTTIPESDLEERSVEQDSTELFTNHRHLTAETPRPEVSPLQGVSE
partner: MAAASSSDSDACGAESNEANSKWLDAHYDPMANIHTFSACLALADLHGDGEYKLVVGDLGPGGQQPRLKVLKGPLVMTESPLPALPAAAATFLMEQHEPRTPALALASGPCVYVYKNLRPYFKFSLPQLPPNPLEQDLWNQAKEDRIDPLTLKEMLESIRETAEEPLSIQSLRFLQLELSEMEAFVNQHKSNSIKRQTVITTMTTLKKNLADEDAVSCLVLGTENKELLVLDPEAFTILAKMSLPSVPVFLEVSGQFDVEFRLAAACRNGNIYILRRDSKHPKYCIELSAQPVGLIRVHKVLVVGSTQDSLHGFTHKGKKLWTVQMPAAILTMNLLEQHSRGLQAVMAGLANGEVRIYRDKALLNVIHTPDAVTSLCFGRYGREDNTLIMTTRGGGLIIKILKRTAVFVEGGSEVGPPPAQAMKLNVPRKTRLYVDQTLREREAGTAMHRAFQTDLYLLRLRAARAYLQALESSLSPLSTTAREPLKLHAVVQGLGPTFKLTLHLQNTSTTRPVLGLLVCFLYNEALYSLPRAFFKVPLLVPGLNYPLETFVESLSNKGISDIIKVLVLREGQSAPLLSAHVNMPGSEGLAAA

Variants of: B1
Settings: with bbs1_human BBS1, Q8NFJ9
D435K was tested, and the “effect of a mutation on the interaction” value was “with no effect”.
In the case of D435E, the “effect of a mutation on the interaction” value is reported as “with no effect”.
With D435A the “effect of a mutation on the interaction” value was “with no effect”.
With P419A the “effect of a mutation on the interaction” value was “with no effect”.
For P419E, the “effect of a mutation on the interaction” value was “with no effect”.
In the case of P419K, the “effect of a mutation on the interaction” value is reported as “with no effect”.
In the case of S425K, the “effect of a mutation on the interaction” value is reported as “with no effect”.
In the case of S425A, the “effect of a mutation on the interaction” value is reported as “with no effect”.
In the case of S425E, the “effect of a mutation on the interaction” value is reported as “with no effect”.
For A427E, the “effect of a mutation on the interaction” value was “with no effect”.
A427K was tested, and the “effect of a mutation on the interaction” value was “with no effect”.
V415K was tested, and the “effect of a mutation on the interaction” value was “with no effect”.
For V415E, the “effect of a mutation on the interaction” value was “with no effect”.
V415A was tested, and the “effect of a mutation on the interaction” value was “with no effect”.
For G433K, the “effect of a mutation on the interaction” value was “with no effect”.
G433E was tested, and the “effect of a mutation on the interaction” value was “with no effect”.
In the case of G433A, the “effect of a mutation on the interaction” value is reported as “with no effect”.
In the case of T428E, the “effect of a mutation on the interaction” value is reported as “with no effect”.
With T428A the “effect of a mutation on the interaction” value was “with no effect”.
T428K was tested, and the “effect of a mutation on the interaction” value was “with no effect”.
V432A was tested, and the “effect of a mutation on the interaction” value was “with no effect”.
For V432E, the “effect of a mutation on the interaction” value was “disrupting interaction strength”.
For V432K, the “effect of a mutation on the interaction” value was “with no effect”.
V413A was tested, and the “effect of a mutation on the interaction” value was “with no effect”.
With V413E the “effect of a mutation on the interaction” value was “with no effect”.
V413K was tested, and the “effect of a mutation on the interaction” value was “with no effect”.
With R407E the “effect of a mutation on the interaction” value was “with no effect”.
In the case of R407A, the “effect of a mutation on the interaction” value is reported as “with no effect”.
In the case of R407K, the “effect of a mutation on the interaction” value is reported as “with no effect”.
For D410E, the “effect of a mutation on the interaction” value was “with no effect”.
With D410A the “effect of a mutation on the interaction” value was “with no effect”.
In the case of D410K, the “effect of a mutation on the interaction” value is reported as “with no effect”.
N420K was tested, and the “effect of a mutation on the interaction” value was “with no effect”.
For N420E, the “effect of a mutation on the interaction” value was “with no effect”.
For N420A, the “effect of a mutation on the interaction” value was “with no effect”.
For V424E, the “effect of a mutation on the interaction” value was “with no effect”.
For V424K, the “effect of a mutation on the interaction” value was “with no effect”.
With V424A the “effect of a mutation on the interaction” value was “with no effect”.
E431A was tested, and the “effect of a mutation on the interaction” value was “with no effect”.
For E431K, the “effect of a mutation on the interaction” value was “with no effect”.
For N412E, the “effect of a mutation on the interaction” value was “with no effect”.
With N412K the “effect of a mutation on the interaction” value was “with no effect”.
With N412A the “effect of a mutation on the interaction” value was “with no effect”.
E408A was tested, and the “effect of a mutation on the interaction” value was “with no effect”.
E408K was tested, and the “effect of a mutation on the interaction” value was “with no effect”.
In the case of T405A, the “effect of a mutation on the interaction” value is reported as “with no effect”.
For T405K, the “effect of a mutation on the interaction” value was “with no effect”.
With T405E the “effect of a mutation on the interaction” value was “with no effect”.
In the case of S423E, the “effect of a mutation on the interaction” value is reported as “with no effect”.
With S423A the “effect of a mutation on the interaction” value was “with no effect”.
For S423K, the “effect of a mutation on the interaction” value was “with no effect”.
In the case of D429A, the “effect of a mutation on the interaction” value is reported as “with no effect”.
In the case of D429E, the “effect of a mutation on the interaction” value is reported as “with no effect”.
For D429K, the “effect of a mutation on the interaction” value was “with no effect”.
L411A was tested, and the “effect of a mutation on the interaction” value was “with no effect”.
In the case of L411E, the “effect of a mutation on the interaction” value is reported as “with no effect”.
In the case of L411K, the “effect of a mutation on the interaction” value is reported as “with no effect”.
For V416K, the “effect of a mutation on the interaction” value was “with no effect”.
With V416A the “effect of a mutation on the interaction” value was “with no effect”.
For V416E, the “effect of a mutation on the interaction” value was “with no effect”.
For S414K, the “effect of a mutation on the interaction” value was “with no effect”.
For S414E, the “effect of a mutation on the interaction” value was “with no effect”.
In the case of S414A, the “effect of a mutation on the interaction” value is reported as “with no effect”.
D422K was tested, and the “effect of a mutation on the interaction” value was “with no effect”.
With D422A the “effect of a mutation on the interaction” value was “with no effect”.
With D422E the “effect of a mutation on the interaction” value was “with no effect”.
With V430K the “effect of a mutation on the interaction” value was “with no effect”.
With V430E the “effect of a mutation on the interaction” value was “with no effect”.
V430A was tested, and the “effect of a mutation on the interaction” value was “with no effect”.
T434E was tested, and the “effect of a mutation on the interaction” value was “with no effect”.
With T434K the “effect of a mutation on the interaction” value was “with no effect”.
For T434A, the “effect of a mutation on the interaction” value was “with no effect”.
In the case of D409K, the “effect of a mutation on the interaction” value is reported as “with no effect”.
In the case of D409A, the “effect of a mutation on the interaction” value is reported as “with no effect”.
D409E was tested, and the “effect of a mutation on the interaction” value was “with no effect”.
V437E was tested, and the “effect of a mutation on the interaction” value was “with no effect”.
For V437A, the “effect of a mutation on the interaction” value was “with no effect”.
For L436K, the “effect of a mutation on the interaction” value was “with no effect”.
For L436E, the “effect of a mutation on the interaction” value was “with no effect”.
L436A was tested, and the “effect of a mutation on the interaction” value was “with no effect”.
In the case of S418K, the “effect of a mutation on the interaction” value is reported as “with no effect”.
In the case of S418A, the “effect of a mutation on the interaction” value is reported as “with no effect”.
With S418E the “effect of a mutation on the interaction” value was “with no effect”.
V417E was tested, and the “effect of a mutation on the interaction” value was “with no effect”.
In the case of V417K, the “effect of a mutation on the interaction” value is reported as “with no effect”.
With V417A the “effect of a mutation on the interaction” value was “with no effect”.
In the case of E406A, the “effect of a mutation on the interaction” value is reported as “with no effect”.
For E406K, the “effect of a mutation on the interaction” value was “with no effect”.
In the case of F421A, the “effect of a mutation on the interaction” value is reported as “with no effect”.
For F421K, the “effect of a mutation on the interaction” value was “with no effect”.
For F421E, the “effect of a mutation on the interaction” value was “with no effect”.
Q426A was tested, and the “effect of a mutation on the interaction” value was “with no effect”.
Q426K was tested, and the “effect of a mutation on the interaction” value was “with no effect”.
With Q426E the “effect of a mutation on the interaction” value was “with no effect”.
